Biological target: Moloney murine leukemia virus reverse transcriptase N-terminal fragment (MMLV RT) (Moloney murine leukemia virus, UniProt P03355 683-937)
Assay: X-ray crystallography

Moloney murine leukemia virus reverse transcriptase N-terminal fragment (MMLV RT), sequence (P03355 683-937): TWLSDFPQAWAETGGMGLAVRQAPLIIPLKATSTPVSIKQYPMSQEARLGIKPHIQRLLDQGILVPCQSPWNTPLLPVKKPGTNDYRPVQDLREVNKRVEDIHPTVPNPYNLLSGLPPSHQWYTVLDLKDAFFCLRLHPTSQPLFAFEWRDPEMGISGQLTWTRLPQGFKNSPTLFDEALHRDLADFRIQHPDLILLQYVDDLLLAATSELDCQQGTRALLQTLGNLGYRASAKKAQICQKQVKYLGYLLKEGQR

B1: 16-mer AATT duplex (dsDNA)
DNA 1: CTTAATTCGAATTAAG
DNA 2: CTTAATTCGAATTAAG
  binding result: binds

From publication PMC2740933
